Experimental data as given in PMC9398005, “A Drosophila Su(H) model of Adams-Oliver Syndrome reveals cofactor titration as a mechanism underlying developmental defects”.

Legend:
Flag-Rbpj WT full length = Flag-Rbpj WT full length (mouse, UniProt P31266 1-526); experiment: EMSA; poly(dI-dC); single and double occupancy; anti-Flag supershift; ITC: 50 mM sodium phosphate, 150 mM NaCl, 10 C (pH not stated); EMSA purified: 3.4 nM probe, 10 min room temperature; EMSA IVT: 10 mM Tris-HCl pH 7.5, 100 mM NaCl, 0.1 mM EDTA, 0.5 mM DTT, 4% glycerol, poly(dI-dC); conditions: protein: ivt; tags: Flag; label: 32P; 5' overhang 4 nt both ends
Flag-Rbpj WT full length, sequence (P31266 whole entry): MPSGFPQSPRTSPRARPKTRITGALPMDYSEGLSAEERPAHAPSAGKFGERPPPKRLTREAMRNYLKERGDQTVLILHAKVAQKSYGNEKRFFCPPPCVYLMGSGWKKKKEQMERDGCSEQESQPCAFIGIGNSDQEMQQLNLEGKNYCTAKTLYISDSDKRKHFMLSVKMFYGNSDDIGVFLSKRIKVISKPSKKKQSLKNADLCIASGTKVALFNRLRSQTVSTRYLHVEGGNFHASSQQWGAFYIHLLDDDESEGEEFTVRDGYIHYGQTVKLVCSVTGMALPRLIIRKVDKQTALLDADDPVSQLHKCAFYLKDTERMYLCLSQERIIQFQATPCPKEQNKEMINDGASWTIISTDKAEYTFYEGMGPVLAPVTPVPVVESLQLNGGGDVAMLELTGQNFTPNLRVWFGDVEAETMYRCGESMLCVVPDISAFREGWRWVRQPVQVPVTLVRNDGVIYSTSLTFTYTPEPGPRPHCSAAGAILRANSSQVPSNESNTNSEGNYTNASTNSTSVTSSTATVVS

Rbpj WT (core) [1] = target: T1, Rbpj WT (core) (mouse, UniProt P31266 53-474); experiment: EMSA; ITC: 50 mM sodium phosphate, 150 mM NaCl, 10 C (pH not stated); EMSA purified: 3.4 nM probe, 10 min room temperature; EMSA IVT: 10 mM Tris-HCl pH 7.5, 100 mM NaCl, 0.1 mM EDTA, 0.5 mM DTT, 4% glycerol, poly(dI-dC); conditions: protein: recombinant; tags: GST removed by PreScission (pGEX-6P1); label: IRDye-700 at 5' end of strand 2; blunt
T1 sequence (P31266 53-474): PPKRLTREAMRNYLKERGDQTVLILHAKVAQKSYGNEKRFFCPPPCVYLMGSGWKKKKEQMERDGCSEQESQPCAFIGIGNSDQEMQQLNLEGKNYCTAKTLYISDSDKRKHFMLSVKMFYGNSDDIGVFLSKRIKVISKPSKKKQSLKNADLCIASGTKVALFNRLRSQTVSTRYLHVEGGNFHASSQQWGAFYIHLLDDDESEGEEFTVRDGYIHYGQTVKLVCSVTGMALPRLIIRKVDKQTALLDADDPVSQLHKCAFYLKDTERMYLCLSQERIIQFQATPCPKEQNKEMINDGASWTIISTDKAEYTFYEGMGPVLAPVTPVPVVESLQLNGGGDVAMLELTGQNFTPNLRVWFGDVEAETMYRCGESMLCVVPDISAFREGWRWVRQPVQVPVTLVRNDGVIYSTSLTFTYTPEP

Rbpj E89G = Rbpj E89G (mouse, UniProt P31266 53-474, E89G); experiment: ITC; 10 C; ITC: 50 mM sodium phosphate, 150 mM NaCl, 10 C (pH not stated); EMSA purified: 3.4 nM probe, 10 min room temperature; EMSA IVT: 10 mM Tris-HCl pH 7.5, 100 mM NaCl, 0.1 mM EDTA, 0.5 mM DTT, 4% glycerol, poly(dI-dC); conditions: protein: recombinant; tags: GST removed by PreScission (pGEX-6P1); blunt
Rbpj E89G, sequence (P31266 53-474 E89G): as the sequence (P31266 53-474) above, with E37G counted along it

Rbpj K195E = Rbpj K195E (mouse, UniProt P31266 53-474, K195E); experiment: as above; conditions: protein: recombinant; tags: GST removed by PreScission (pGEX-6P1); blunt
Rbpj K195E, sequence (P31266 53-474 K195E): as the sequence (P31266 53-474) above, with K143E counted along it

Rbpj WT (core) [2] = target: T1, Rbpj WT (core); experiment: as above; conditions: protein: recombinant; tags: GST removed by PreScission (pGEX-6P1); blunt

B1: EMSA probe with 2 RBPJ sites (dsDNA)
DNA 1: CCTGGAACTATTTTCCCACGGTGCCCTTCCGCCCATTTTCCCACGAGTCG
DNA 2: CTCGCGACTCGTGGGAAAATGGGCGGAAGGGCACCGTGGGAAAATAGTTC
Flag-Rbpj WT full length
  binding result: binds

B2: EMSA high affinity CSL probe (dsDNA)
DNA 1: CGAACGAGGCAAACCTAGGCTAGAGGCACCGTGGGAAACTAGTGCGGGCGTGGCT
DNA 2: AGCCACGCCCGCACTAGTTTCCCACGGTGCCTCTAGCCTAGGTTTGCCTCGTTCG
Rbpj WT (core) [1]
  binding result: binds

B3: ITC 20-mer CSL duplex (dsDNA)
DNA 1: GGCACCGTGGGAAACTAGTG
DNA 2: CACTAGTTTCCCACGGTGCC
Rbpj E89G
  Kd: 440 ± 86.8 nM
Rbpj K195E
  Kd: 1160 ± 258 nM
Rbpj WT (core) [2]
  Kd: 74 ± 10.8 nM
